For 1 molecule, Kd results are on record in PMC6080896 (The Journal of General Physiology, 2018).

For the assay, the target named is cerulean-tagged CaM (Cer-CaMWT) (UniProt P0DP23 1-149). Put plainly: FRET or BRET.

The term Kd denotes a measure of binding affinity in units of concentration. Lower therefore signals a tighter complex.

B1: Venus-tagged CaV1.1 CI (Ven-CaV1.1 CI) (domain or fragment)
chain: not shown
For B1, the Kd was ~2300 nM.
